Values of other authors in publication PMC11574045, “A cofactor-induced repressive type of transcription factor condensation can be induced by synthetic peptides to suppress tumorigenesis” (The EMBO Journal, 2024).

Molecular target: VGLL4 (Homo sapiens) (UniProt Q14135)
Conditions: cited from earlier work

Chain of VGLL4 (Homo sapiens) (Q14135 whole entry): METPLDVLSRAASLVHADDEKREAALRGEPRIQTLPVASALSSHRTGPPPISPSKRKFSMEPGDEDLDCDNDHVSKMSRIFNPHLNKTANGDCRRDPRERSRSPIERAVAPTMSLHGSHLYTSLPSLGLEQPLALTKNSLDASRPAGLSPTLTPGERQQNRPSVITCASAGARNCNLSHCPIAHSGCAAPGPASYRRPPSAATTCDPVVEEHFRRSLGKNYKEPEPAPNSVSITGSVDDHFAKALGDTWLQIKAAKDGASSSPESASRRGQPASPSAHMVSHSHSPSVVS
Chain of TEAD4 (Q15561 whole entry): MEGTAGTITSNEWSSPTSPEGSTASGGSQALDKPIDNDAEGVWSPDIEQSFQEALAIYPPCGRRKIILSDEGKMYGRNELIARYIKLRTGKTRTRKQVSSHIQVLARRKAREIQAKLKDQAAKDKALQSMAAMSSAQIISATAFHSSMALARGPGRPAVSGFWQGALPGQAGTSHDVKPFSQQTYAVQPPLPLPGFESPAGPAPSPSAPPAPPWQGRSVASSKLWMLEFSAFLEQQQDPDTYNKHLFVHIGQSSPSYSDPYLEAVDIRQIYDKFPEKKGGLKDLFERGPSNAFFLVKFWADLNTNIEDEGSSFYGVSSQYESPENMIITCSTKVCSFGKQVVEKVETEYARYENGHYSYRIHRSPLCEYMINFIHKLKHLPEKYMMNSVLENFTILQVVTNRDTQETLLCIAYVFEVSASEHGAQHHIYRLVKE

Substance: TEAD4 (from UniProt Q15561)
- Kd: 6.8 nM
